Paper PMC6711812

Biological target: PpCESA3 (MbYTH bait and prey fusions) (Physcomitrella patens) (UniProt A9RGN5)
Assay: two-hybrid

Which colony growth as percent of the positive control does the source give for “PpCESA3 (MbYTH bait and prey fusions) (from UniProt A9RGN5 1-1093) (natural protein)” here?
Its colony growth as percent of the positive control is 20%.
